Source: patent publication US20120277143A1 (Janssen / Centocor, published 2012)

T1: murine IL4 (mouse, UniProt P07750 21-140)
T1 construct: also called mIL4; mouse IL4
T1 sequence (looked up): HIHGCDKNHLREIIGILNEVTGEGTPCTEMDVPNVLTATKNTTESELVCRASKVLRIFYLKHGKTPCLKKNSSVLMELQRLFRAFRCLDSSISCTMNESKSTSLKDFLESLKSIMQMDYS

T2: murine IL13 (mouse, UniProt P20109 21-131, limits assumed)
T2 sequence (looked up): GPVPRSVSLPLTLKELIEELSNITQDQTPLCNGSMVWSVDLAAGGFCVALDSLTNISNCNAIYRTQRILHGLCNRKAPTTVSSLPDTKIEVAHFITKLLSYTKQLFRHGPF

B1: C06-21H2 (designed binder)
chain: DLGEKLLEAARAGQDDEVRILMANGADVNAYDDDGMTPLHLAAKSGHLEIVEVLLKHGADVNAMDITGSAPLHLAADLGHLEIVEVLLKHGADVNAIDYLGATPLHLAATYGHPEIVEVLLKYGADVNAQDKFGKTAFDISIDNGNEDLAEILQKLN
B2: 11G11-21H2 (designed binder)
chain: MRGSHHHHHHGSDLGKKLMEAARAGQDDEVRILMANGADVNAKDLFGITPLHLAAVYGHLEIVEVLLKHGADVNATDNWGSTPLHLAAQFGHLEIVEVLLKYGADVNAQDKFGKTAFDISIDNGNEDLAEILQKLGGGGSGGGGSGGGGSGGGGSRSDLGEKLLEAARAGQDDEVRILMANGADVNAYDDDGMTPLHLAAKSGHLEIVEVLLKHGADVNAMDITGSAPLHLAADLGHLEIVEVLLKHGADVNAIDYLGATPLHLAATYGHPEIVEVLLKYGADVNAQDKFGKTAFDISIDNGNEDLAEILQKLN

How the values were obtained:
murine IL4 [1] = target: T1, murine IL4; experiment: affinity for mIL4, method and numbers not given
murine IL4 [2] = target: T1, murine IL4; experiment: cell-based or functional assay
murine IL13 = target: T2, murine IL13; experiment: cell-based or functional assay

Binder | binding result (murine IL4 [1]) | IC50 (read off the curve); IL4 dependent HT2 proliferation assay, retentate sample (diamonds, solid line) (murine IL4 [2]) [nM] | IC50 (read off the curve); IL13 STAT6 activation assay, aerosolized sample (triangles) (murine IL13) [nM] | IC50 (read off the curve); IL13 STAT6 activation assay, pre-nebulization sample (squares) (murine IL13) [nM] | IC50 (read off the curve); IL13 STAT6 activation assay, retentate sample (diamonds) (murine IL13) [nM]
B1 | binds |  |  |  | 
B2 |  | ~0.04 | ~2 | ~1 | ~1
